{"source": "patent US20160289336A1", "about": "(F STAR BIOTECHNOLOGY, published 2016)", "binders": {"B1": {"name": "antigen-binding Fc fragment H561-4 (designed binder)", "chain": "TCPPCPAPELLGGPSVFLFPPKPKDTLMISRTPEVTCVVVDVSHEDPEVKFNWYVDGVEVHNAKTKPREEQYNSTYRVVSVLTVLHQDWLNGKEYKCKVSNKALPAPIEKTISKAKGQPREPQVYTLPPSRDEFFTYWVSLTCLVKGFYPSDIAVEWESNGQPENNYKTTPPVLDSDGSFFLYSKLTVDRRRWTAGNVFSCSVMHEALHNHYTQKSLSLSPGK", "notes": "C-terminal K or GK may be clipped in manufacture; also called FS102; Fcab"}}, "key": {"[1]": {"target": "T1, monomeric HER2 (extracellular domain of HER2 without tag) (human, UniProt P04626 23-652)", "T1 construct": "also called HER2 ECD untagged; untagged HER2 ECD, in house", "test": "ELISA, monomeric HER2 (ECD untagged) coated at 2 µg/ml, biotinylated H561-4, Strep-HRP; monomeric HER2, not dimeric HER2", "experimental": "(§1) Monomeric HER2 (HER2 ECD untagged) and dimeric HER2 (HER2 ECD Fc-tag) were immobilised at 2 μg/ml on a 96-well maxisorp plate (Nunc) in PBS overnight at 4° C. The plates were blocked for 1 hour with 200 μl of 5% BSA in PBS. […] The dilution series was removed and the plate was washed 3× with phosphate buffered saline with Tween 20 (PBST).\n(§2) A 1:5000 dilution of Strep-HRP (Abcam ab) was prepared in 5% BSA and 100 μl was added to the plate and incubated for 1 hour at RT. The plate was then washed 3× with PBST before 100 μl of TMB (Roche) were added, and the plate incubated at RT for 2 mins. The reaction was stopped using 100 μl of 2 M H₂SO₄ and the plate was read at 450 nm."}, "[2]": {"target": "T2, dimeric HER2 (extracellular domain of HER2 with Fc tag, R&D) (human, UniProt P04626 23-652)", "T2 construct": "Bought protein; also called HER2 ECD Fc-tag; Fc-tagged HER2 ECD; not shown: Fc tag of the bought R&D protein", "test": "ELISA, dimeric HER2 (ECD Fc-tag) coated at 2 µg/ml, biotinylated H561-4, Strep-HRP", "experimental": "as §1, §2"}}}
{"binder": "B1", "values": [{"measurement": "EC50", "setting": "[1]", "result": 20.6, "unit": "nM"}, {"measurement": "EC50", "setting": "[2]", "result": 1.7, "unit": "nM"}]}
